{"source": "patent US20190359687A1", "about": "(Bayer, published 2019)", "binders": {"B1": {"name": "TPP-9976 FVIII-scFv fusion protein (other)", "chain": "ATRRYYLGAVELSWDYMQSDLGELPVDARFPPRVPKSFPFNTSVVYKKTLFVEFTDHLFNIAKPRPPWMGLLGPTIQAEVYDTVVITLKNMASHPVSLHAVGVSYWKASEGAEYDDQTSQREKEDDKVFPGGSHTYVWQVLKENGPMASDPLCLTYSYLSHVDLVKDLNSGLIGALLVCREGSLAKEKTQTLHKFILLFAVFDEGKSWHSETKNSLMQDRDAASARAWPKMHTVNGYVNRSLPGLIGCHRKSVYWHVIGMGTTPEVHSIFLEGHTFLVRNHRQASLEISPITFLTAQTLLMDLGQFLLFCHISSHQHDGMEAYVKVDSCPEEPQLRMKNNEEAEDYDDDLTDSEMDVVRFDDDNSPSFIQIRSVAKKHPKTWVHYIAAEEEDWDYAPLVLAPDDRSYKSQYLNNGPQRIGRKYKKVRFMAYTDETFKTREAIQHESGILGPLLYGEVGDTLLIIFKNQASRPYNIYPHGITDVRPLYSRRLPKGVKHLKDFPILPGEIFKYKWTVTVEDGPTKSDPRCLTRYYSSFVNMERDLASGLIGPLLICYKESVDQRGNQIMSDKRNVILFSVFDENRSWYLTENIQRFLPNPAGVQLEDPEFQASNIMHSINGYVFDSLQLSVCLHEVAYWYILSIGAQTDFLSVFFSGYTFKHKMVYEDTLTLFPFSGETVFMSMENPGLWILGCHNSDFRNRGMTALLKVSSCDKNTGDYYEDSYEDISAYLLSKNNAIEPRSFSQNGGGGSTGGTGGSSGGGTGSGGGGTGGSGGTDIQLTQSPSFLSASVGDRVTITCRASSSVRYIYWFQQKPGKAPKLLIYATSFRQSGVPSRFSGSGSGTEYTLTISSLQPEDFATYYCHQRNSFPYTFGQGTKLEIKGGGGSGGGGSGGGGSGGGGSEVQLVQSGAEVKKPGASVKVSCKASGYTFTTYAIHWVRQAPGQGLEWMGYINPSSGYTRYNPKFKGRVTMTRDKSTSTAYMELRSLRSDDTAVYYCWTGTRDYWGQGTTVTVSSGGGGDIQLTQSPSFLSASVGDRVTITCRASSSVRYIYWFQQKPGKAPKLLIYATSFRQSGVPSRFSGSGSGTEYTLTISSLQPEDFATYYCHQRNSFPYTFGQGTKLEIKGGGGSGGGGSGGGGSGGGGSEVQLVQSGAEVKKPGASVKVSCKASGYTFTTYAIHWVRQAPGQGLEWMGYINPSSGYTRYNPKFKGRVTMTRDKSTSTAYMELRSLRSDDTAVYYCWTGTRDYWGQGTTVTVSSGGGGDENQSPRSFQKKTRHYFIAAVERLWDYGMSSSPHVLRNRAQSGSVPQFKKVVFQEFTDGSFTQPLYRGELNEHLGLLGPYIRAEVEDNIMVTFRNQASRPYSFYSSLISYEEDQRQGAEPRKNFVKPNETKTYFWKVQHHMAPTKDEFDCKAWAYFSDVDLEKDVHSGLIGPLLVCHTNTLNPAHGRQVTVQEFALFFTIFDETKSWYFTENMERNCRAPCNIQMEDPTFKENYRFHAINGYIMDTLPGLVMAQDQRIRWYLLSMGSNENIHSIHFSGHVFTVRKKEEYKMALYNLYPGVFETVEMLPSKAGIWRVECLIGEHLHAGMSTLFLVYSNKCQTPLGMASGHIRDFQITASGQYGQWAPKLARLHYSGSINAWSTKEPFSWIKVDLLAPMIIHGIKTQGARQKFSSLYISQFIIMYSLDGKKWQTYRGNSTGTLMVFFGNVDSSGIKHNIFNPPIIARYIRLHPTHYSIRSTLRMELMGCDLNSCSMPLGMESKAISDAQITASSYFTNMFATWSPSKARLHLQGRSNAWRPQVNNPKEWLQVDFQKTMKVTGVTTQGVKSLLTSMYVKEFLISSSQDGHQWTLFFQNGKVKVFQGNQDSFTPVVNSLDPPLLTRYLRIHPQSWVHQIALRMEVLGCEAQDLY", "notes": "also called PPB 7998"}}, "key": {"[1]": {"target": "T1, Cynomolgus monkey glycophorin A on Cynomolgus monkey red blood cells (Cynomolgus monkey)", "T1 construct": "whole, on cells; also called Cyno GPA; Cyno RBC", "assay": "partition to Cyno RBC, human HemA plasma, 60 min;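 note: FVIII fusion spiked at 1 IU/mL into RBC suspension at whole-blood density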"}, "[2]": {"target": "T2, human glycophorin A on human red blood cells (human, UniProt P02724 20-150)", "T2 construct": "whole, on cells; also called human GPA; huGPA", "T2 sequence (looked up)": "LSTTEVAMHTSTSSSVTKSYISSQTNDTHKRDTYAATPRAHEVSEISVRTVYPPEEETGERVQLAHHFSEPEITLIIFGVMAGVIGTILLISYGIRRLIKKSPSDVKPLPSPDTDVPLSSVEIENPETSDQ", "assay": "partition to human RBC, human HemA plasma, 120 min", "experimental": "(§1) The supernatant containing plasma, platelets and white blood cells was discarded and the red blood cell pellet was resuspended in 10 pellet volumes of PBS (50 mM Phosphate buffer, pH7.4, 150 mM NaCl). The red blood cells were then pelleted by slow speed centrifugation and the red blood cells re-suspended in 10 volumes of PBS. This washing step was repeated 4 more times and the red blood cells finally resuspended in a volume of plasma from Hemophilia patients with less than 1% of normal levels of FVIII (GeorgeKing Bio-Medical, Overland Park, Kans.) to generate a total volume equal to the initial blood volume such that the RBC density was equal to that of normal whole blood. BDD and RBC targeted FVIII molecules were then spiked into RBC suspension in HemA plasma at 1 IU/mL, and incubated at room temperature for 2-3 hours with gentle rotation. […] An additional control was performed in which BDD or RBC targeted FVIII molecules were added at 11U/ml into the same human hemophilia A plasma and incubated for 5 minutes and 180 mins. These samples were used to determine the input FVIII activity in the presence of plasma which was used to calculate the percentage of the molecule that was bound to RBC. All plasma samples were then assayed together for FVIII activity using the Coatest SP assay (DiaPharma, Columbus, Ohio). The assay was performed following the manufacturer's instructions in a 96-well plate format. […] The plate was incubated at 37° C. for 10 minutes with shaking between each reagent addition. […] The amount of FVIII activity in the plasma reflects the amount of unbound FVIII. The FVIII activity of the same molecule spiked in to Hemophilia A plasma alone (no RBC) and incubated for 5 minutes was normalized to 100%."}, "[3]": {"target": "T2, human glycophorin A on human red blood …", "assay": "partition to human RBC, human HemA plasma, 15 min", "experimental": "as §1"}, "[4]": {"target": "T1, Cynomolgus monkey glycophorin A on …", "assay": "partition to Cyno RBC, human HemA plasma, 30 min;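 note: FVIII fusion spiked at 1 IU/mL into RBC suspension at whole-blood density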"}, "[5]": {"target": "T1, Cynomolgus monkey glycophorin A on …", "assay": "partition to Cyno RBC, human HemA plasma, 120 min;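 note: FVIII fusion spiked at 1 IU/mL into RBC suspension at whole-blood density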", "experimental": "(§2) To evaluate partition to cynomolgus monkey or human red blood cells, whole blood was draw from Cynomolgus monkey or normal human volunteers in to anticoagulant with 4% sodium citrate (Sigma, St Louis, Mo.). The red blood cells were purified by layering the whole blood on to ficoll followed by low speed centrifugation. The supernatant containing plasma, platelets and white blood cells was discarded and the red blood cell pellet was resuspended in 10 pellet volumes of PBS (50 mM Phosphate buffer, pH7.4, 150 mM NaCl). The red blood cells were then pelleted by slow speed centrifugation and the red blood cells re-suspended in 10 volumes of PBS. This washing step was repeated 4 more times and the red blood cells finally resuspended in a volume of plasma from Hemophilia patients with less than 1% of normal levels of FVIII (GeorgeKing Bio-Medical, Overland Park, Kans.) to generate a total volume equal to the initial blood volume such that the RBC density was equal to that of normal whole blood. BDD and RBC targeted FVIII molecules were then spiked into RBC suspension in HemA plasma at 1 IU/mL, and incubated at room temperature for 2-3 hours with gentle rotation. […] An additional control was performed in which BDD or RBC targeted FVIII molecules were added at 11U/ml into the same human hemophilia A plasma and incubated for 5 minutes and 180 mins. These samples were used to determine the input FVIII activity in the presence of plasma which was used to calculate the percentage of the molecule that was bound to RBC. All plasma samples were then assayed together for FVIII activity using the Coatest SP assay (DiaPharma, Columbus, Ohio). The assay was performed following the manufacturer's instructions in a 96-well plate format. […] The plate was incubated at 37° C. for 10 minutes with shaking between each reagent addition."}, "[6]": {"target": "T2, human glycophorin A on human red blood …", "assay": "partition to human RBC, human HemA plasma, 60 min", "experimental": "as §1"}, "[7]": {"target": "T2, human glycophorin A on human red blood …", "assay": "partition to human RBC, human HemA plasma, 120 min", "remark": "listed apart in the source"}, "[8]": {"target": "T2, human glycophorin A on human red blood …", "assay": "partition to human RBC, human HemA plasma, 30 min", "experimental": "as §1"}, "[9]": {"target": "T2, human glycophorin A on human red blood …", "assay": "partition to human RBC, human HemA plasma, 1 min", "experimental": "as §1"}, "[10]": {"target": "T1, Cynomolgus monkey glycophorin A on …", "assay": "partition to Cyno RBC, human HemA plasma, 15 min;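 note: FVIII fusion spiked at 1 IU/mL into RBC suspension at whole-blood density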", "experimental": "as §2"}, "[11]": {"target": "T1, Cynomolgus monkey glycophorin A on …", "assay": "partition to Cyno RBC, human HemA plasma, 1 min;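 note: FVIII fusion spiked at 1 IU/mL into RBC suspension at whole-blood density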"}, "[12]": {"target": "T2, human glycophorin A on human red blood …", "assay": "partition to human RBC, human HemA plasma, 5 min", "experimental": "as §1"}, "[13]": {"target": "T1, Cynomolgus monkey glycophorin A on …", "assay": "partition to Cyno RBC, human HemA plasma, 5 min;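 note: FVIII fusion spiked at 1 IU/mL into RBC suspension at whole-blood density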", "experimental": "as §2"}}, "data": [{"binder": "B1", "values": [{"measurement": "% bound to Cyno RBC", "setting": "[1]", "result": 84.5, "unit": "%"}, {"measurement": "percentage bound to human RBC", "setting": "[2]", "result": 95.2, "unit": "%"}, {"measurement": "percentage bound to human RBC", "setting": "[3]", "result": 86.6, "unit": "%"}, {"measurement": "% bound to Cyno RBC", "setting": "[4]", "result": 78.1, "unit": "%"}, {"measurement": "% bound to Cyno RBC", "setting": "[5]", "result": 86.8, "unit": "%"}, {"measurement": "percentage bound to human RBC", "setting": "[6]", "result": 93.5, "unit": "%"}, {"measurement": "percentage bound to human RBC", "setting": "[7]", "result": 95.2, "unit": "%"}, {"measurement": "percentage bound to human RBC", "setting": "[8]", "result": 90.4, "unit": "%"}, {"measurement": "percentage bound to human RBC", "setting": "[9]", "result": 55.2, "unit": "%"}, {"measurement": "% bound to Cyno RBC", "setting": "[10]", "result": 75.6, "unit": "%"}, {"measurement": "% bound to Cyno RBC", "setting": "[11]", "result": 53.4, "unit": "%"}, {"measurement": "percentage bound to human RBC", "setting": "[12]", "result": 74.3, "unit": "%"}, {"measurement": "% bound to Cyno RBC", "setting": "[13]", "result": 65.7, "unit": "%"}]}]}
